Where “and” joins values, the source holds several entries; their conditions need not be identical. Equal values may be shown once.
Key:
[1] = target: Rap55, T^2-ELISA construct, cell-free expressed from PCR product with N-terminal VSV-G and C-terminal HSV epitope tags (UniProt Q8ND56); experiment: dual-reporter T^2-ELISA, against the single-reporter HRP control
[2] = target: Rap55, T^2-ELISA construct, cell-free expressed from PCR product with N-terminal VSV-G and C-terminal HSV epitope tags (UniProt Q8ND56)

UniProt Q8ND56, sequence (Q8ND56 1-463, tags or fused parts left off): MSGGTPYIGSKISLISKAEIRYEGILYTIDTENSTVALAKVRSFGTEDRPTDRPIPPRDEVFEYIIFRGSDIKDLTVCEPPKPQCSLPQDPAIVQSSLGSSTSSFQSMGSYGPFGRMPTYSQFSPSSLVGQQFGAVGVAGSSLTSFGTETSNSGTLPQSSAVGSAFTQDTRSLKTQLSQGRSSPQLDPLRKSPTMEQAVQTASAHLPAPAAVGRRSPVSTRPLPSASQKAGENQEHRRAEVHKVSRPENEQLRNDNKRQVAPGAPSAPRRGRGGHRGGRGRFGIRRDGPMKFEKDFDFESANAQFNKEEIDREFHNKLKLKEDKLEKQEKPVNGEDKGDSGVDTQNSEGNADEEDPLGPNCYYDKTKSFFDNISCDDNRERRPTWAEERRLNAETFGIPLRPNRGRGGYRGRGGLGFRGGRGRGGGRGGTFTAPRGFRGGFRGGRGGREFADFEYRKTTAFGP

anti-VSV-G horseradish peroxidase (HRP) labeled monoclonal antibody (Clone P5D4, Roche Applied Science)
Percent of Control (HRP detection, VSV-G tag) [1]: 96.5% | Signal to Noise [2]: 698 and 760

Source: patent publication US8852956
